The text below walks through data of patent US20220411536A1 (NUMAB THERAPEUTICS, published 2022).

Test [1] deals with T1, human PD-L1 expressed on cells (CHO-PD-L1, HCC1954, HCC827) (human, UniProt Q9NZQ7 19-290). Description: cell-based or functional assay.
The target of test [2] is T1, human PD-L1 expressed on cells …. Description: flow cytometry with human SA, inhibition of PD-1 binding to HCC1954 cells. In general terms: Flow cytometry measures light scatter and fluorescence of single cells or particles in a stream.
In test [3] the target is CD137 on transgenic NF-kB Jurkat reporter cells (Homo sapiens (Human), UniProt Q07011 24-255). Put plainly: cell-based or functional assay.
Test [4] addresses T1, human PD-L1 expressed on cells …. Description: flow cytometry with human SA, inhibition of PD-1 binding to HCC827 cells.
The target is the same in test [5]. Put plainly: flow cytometry with human SA, inhibition of PD-1 binding to HCC1954 cells. The source holds these as a separate data set.

B1: PRO1494 (scFv, V domains shown)
VH: QVQLQESGPGLVKPSETLSLTCKVSGFSFSSGYDMCWIRQPPGKGLEWIGCVVAGSVDITYYASWAKGRVTISVDSSKNQFSLKLSSVTAADTAVYYCARKDAASDAFNLWGQGTLVTVSS
VL: DIQMTQSPSSLSASVGDRVTITCQASQSINDYLAWYQQKPGKAPKLLIYKASTLASGVPSRFSGSGSGTDFTLTISSLQPEDFATYYCQAGYIITDIDNVFGTGTKVTVLG
On to B1, for which the “IC50, neutralization of PD-L1 in NF-AT potency assay” value in test [1] turned out to be 36.8 µg/mL.

B2: PRO1992 (multispecific antibody)
chain 1: DVVMTQSPSSLSASVGDRVTITCQASQIISSRSAWYQQKPGQPPKLLIYQASKLASGVPSRFSGSGSGTDFTLTISSLQPEDFATYYCQCTYIDSNFGAFGTGTKLTVLGGGGGSGGGGSGGGGSGGGGSEVQLVESGGGLVQPGGSLRLSCAASGFSFSSSYWICWVRQAPGKGLEWVGCVFTGDGTTYYASWAKGRFTISRDNSKNTVYLQMNSLRAEDTATYFCARPVSVYYYGMDLWGQGTLVTVSSGGGGSGGGGSDIQMTQSPSSLSASVGDRVTITCKASQDVSIGVAWYQQKPGKAPKLLIYSASYRYTGVPSRFSGSGSGTDFTLTISSLQPEDFATYYCQQYYIYPYTFGCGTKVTVLGGGSGGSDIQMTQSPSSLSASVGDRVTITCQASQSINDYLAWYQQKPGKAPKLLIYKASTLASGVPSRFSGSGSGTDFTLTISSLQPEDFATYYCQAAYIITDIDNVFGTGTKVTVLG
chain 2: DIQMTQSPSSLSASVGDRVTITCQASQSISNRLAWYQQKPGKAPKLLIYSASTLASGVPSRFSGSGSGTDFTLTISSLQPEDFATYYCQSTYYGNDGNAFGCGTKVTVLGGGGGSGGGGSGGGGSGGGGSEVQLVESGGGLVQPGGSLRLSCAASGFSFSANYYPCWVRQAPGKCLEWIGCIYGGSSDITYDANWTKGRFTISRDNSKNTVYLQMNSLRAEDTAVYYCARSAWYSGWGGDLWGQGTLVTVSSGGGGSGGGGSQVQLQESGPGLVKPSETLSLTCKVSGFSFSSGYDMCWIRQPPGKGLEWIGCVVAGSVDITYYASWAKGRVTISVDSSKNQFSLKLSSVTAADTAVYYCARKDAYSDAFNLWGQGTLVTVSSGGGSGGGSEVQLVESGGGLVQPGGSLRLSCAASGFTFTDYTMDWVRQAPGKCLEWVADVNPNSGGSIYNQRFKGRFTLSVDRSKNTLYLQMNSLRAEDTAVYYCARNLGPSFYFDYWGQGTLVTVSS
For orientation: IC50 means the concentration that gives 50% inhibition. Low readings indicate greater potency in that assay, high ones weaker potency in that assay. Take B2: in test [2], the IC50 is 0.592 µg/mL. In test [3], the “EC50, NFkB reporter gene assay, HCC827 cells” value was 0.253 nM and the “EC50, NFkB reporter gene assay, HCC1954 cells” value turned out to be 0.0824 nM.

B3: PRO1814 (multispecific antibody)
chain: DIQMTQSPSSLSASVGDRVTITCQASQSINDYLAWYQQKPGKAPKLLIYKASTLASGVPSRFSGSGSGTDFTLTISSLQPEDFATYYCQAAYIITDIDNVFGTGTKVTVLGGGGGSEVQLVESGGGLVQPGGSLRLSCAASGFTFTDYTMDWVRQAPGKGLEWVADVNPNSGGSIYNQRFKGRFTLSVDRSKNTLYLQMNSLRAEDTAVYYCARNLGPSFYFDYWGQGTLVTVSSGGGGSGGGGSGGGGSGGGGSDIQMTQSPSSLSASVGDRVTITCKASQDVSIGVAWYQQKPGKAPKLLIYSASYRYTGVPSRFSGSGSGTDFTLTISSLQPEDFATYYCQQYYIYPYTFGTGTKVTVLGGGGGSQVQLQESGPGLVKPSETLSLTCKVSGFSFSSGYDMCWIRQPPGKGLEWIGCVVAGSVDITYYASWAKGRVTISVDSSKNQFSLKLSSVTAADTAVYYCARKDAYSDAFNLWGQGTLVTVSSGGGGSGGGGSIQMTQSPSSLSASVGDRVTITCQSSESVYSNNQLSWYQQKPGQPPKLLIYDASDLASGVPSRFSGSGSGTDFTLTISSLQPEDFATYYCAGGFSSSSDTAFGGGTKLTVLGGGGGSGGGGSGGGGSGGGGSEVQLVESGGGLVQPGGSLRLSCAASGFSLSSNAMGWVRQAPGKGLEYIGIISVGGFTYYASWAKGRFTISRDNSKNTVYLQMNSLRAEDTATYFCARDRHGGDSSGAFYLWGQGTLVTVSS
notes: also called PR01814
On to B3, for which the IC50 in test [4] was 53.8 µg/mL; in test [5], 0.0525 µg/mL.

B4: PRO1852 (multispecific antibody)
chain: DIQMTQSPSSLSASVGDRVTITCQASQSINDYLAWYQQKPGKAPKLLIYKASTLASGVPSRFSGSGSGTDFTLTISSLQPEDFATYYCQAAYIITDIDNVFGTGTKVTVLGGGGGSEVQLVESGGGLVQPGGSLRLSCAASGFTFTDYTMDWVRQAPGKCLEWVADVNPNSGGSIYNQRFKGRFTLSVDRSKNTLYLQMNSLRAEDTAVYYCARNLGPSFYFDYWGQGTLVTVSSGGGGSGGGGSGGGGSGGGGSDIQMTQSPSSLSASVGDRVTITCKASQDVSIGVAWYQQKPGKAPKLLIYSASYRYTGVPSRFSGSGSGTDFTLTISSLQPEDFATYYCQQYYIYPYTFGCGTKVTVLGGGGGSQVQLQESGPGLVKPSETLSLTCKVSGFSFSSGYDMCWIRQPPGKGLEWIGCVVAGSVDITYYASWAKGRVTISVDSSKNQFSLKLSSVTAADTAVYYCARKDAYSDAFNLWGQGTLVTVSSGGGGSGGGGSIQMTQSPSSLSASVGDRVTITCQSSESVYSNNQLSWYQQKPGQPPKLLIYDASDLASGVPSRFSGSGSGTDFTLTISSLQPEDFATYYCAGGFSSSSDTAFGGGTKLTVLGGGGGSGGGGSGGGGSGGGGSEVQLVESGGGLVQPGGSLRLSCAASGFSLSSNAMGWVRQAPGKGLEYIGIISVGGFTYYASWAKGRFTISRDNSKNTVYLQMNSLRAEDTATYFCARDRHGGDSSGAFYLWGQGTLVTVSS
As for B4, the IC50 in test [4] came to 16.8 µg/mL; in test [5], 0.0556 µg/mL.

B5: PRO1853 (multispecific antibody)
chain: DIQMTQSPSSLSASVGDRVTITCQASQSINDYLAWYQQKPGKAPKLLIYKASTLASGVPSRFSGSGSGTDFTLTISSLQPEDFATYYCQAGYIITDIDNVFGTGTKVTVLGGGGGSEVQLVESGGGLVQPGGSLRLSCAASGFTFTDYTMDWVRQAPGKGLEWVADVNPNSGGSIYNQRFKGRFTLSVDRSKNTLYLQMNSLRAEDTAVYYCARNLGPSFYFDYWGQGTLVTVSSGGGGSGGGGSGGGGSGGGGSDIQMTQSPSSLSASVGDRVTITCKASQDVSIGVAWYQQKPGKAPKLLIYSASYRYTGVPSRFSGSGSGTDFTLTISSLQPEDFATYYCQQYYIYPYTFGTGTKVTVLGGGGGSQVQLQESGPGLVKPSETLSLTCKVSGFSFSSGYDMCWIRQPPGKGLEWIGCVVAGSVDITYYASWAKGRVTISVDSSKNQFSLKLSSVTAADTAVYYCARKDAASDAFNLWGQGTLVTVSSGGGGSGGGGSIQMTQSPSSLSASVGDRVTITCQSSESVYSNNQLSWYQQKPGQPPKLLIYDASDLASGVPSRFSGSGSGTDFTLTISSLQPEDFATYYCAGGFSSSSDTAFGGGTKLTVLGGGGGSGGGGSGGGGSGGGGSEVQLVESGGGLVQPGGSLRLSCAASGFSLSSNAMGWVRQAPGKGLEYIGIISVGGFTYYASWAKGRFTISRDNSKNTVYLQMNSLRAEDTATYFCARDRHGGDSSGAFYLWGQGTLVTVSS
As to B5, the IC50 in test [4] is 88.2 µg/mL; in test [5], 0.0695 µg/mL.

B6: PRO1854 (multispecific antibody)
chain: DIQMTQSPSSLSASVGDRVTITCQASQSINDYLAWYQQKPGKAPKLLIYKASTLASGVPSRFSGSGSGTDFTLTISSLQPEDFATYYCQAGYIITDIDNVFGTGTKVTVLGGGGGSEVQLVESGGGLVQPGGSLRLSCAASGFTFTDYTMDWVRQAPGKCLEWVADVNPNSGGSIYNQRFKGRFTLSVDRSKNTLYLQMNSLRAEDTAVYYCARNLGPSFYFDYWGQGTLVTVSSGGGGSGGGGSGGGGSGGGGSDIQMTQSPSSLSASVGDRVTITCKASQDVSIGVAWYQQKPGKAPKLLIYSASYRYTGVPSRFSGSGSGTDFTLTISSLQPEDFATYYCQQYYIYPYTFGCGTKVTVLGGGGGSQVQLQESGPGLVKPSETLSLTCKVSGFSFSSGYDMCWIRQPPGKGLEWIGCVVAGSVDITYYASWAKGRVTISVDSSKNQFSLKLSSVTAADTAVYYCARKDAASDAFNLWGQGTLVTVSSGGGGSGGGGSIQMTQSPSSLSASVGDRVTITCQSSESVYSNNQLSWYQQKPGQPPKLLIYDASDLASGVPSRFSGSGSGTDFTLTISSLQPEDFATYYCAGGFSSSSDTAFGGGTKLTVLGGGGGSGGGGSGGGGSGGGGSEVQLVESGGGLVQPGGSLRLSCAASGFSLSSNAMGWVRQAPGKGLEYIGIISVGGFTYYASWAKGRFTISRDNSKNTVYLQMNSLRAEDTATYFCARDRHGGDSSGAFYLWGQGTLVTVSS
B6: the IC50 in test [4] is 53.5 µg/mL; in test [5], 0.0561 µg/mL.
